Results on one molecule are retold here after patent publication US20220213211A1 (Memorial Sloan Kettering, published 2022).

As a reminder, the Kd is the equilibrium constant for the complex coming apart. One may read the koff as the rate constant with which the complex falls apart. The term kon denotes the second-order rate constant of association.

For the test, the target named is T1, biotinylated recombinant CD371 (soluble CD371) (Homo sapiens (Human), UniProt Q5QGZ9 65-265, biotinylated (site not stated)).
T1 sequence: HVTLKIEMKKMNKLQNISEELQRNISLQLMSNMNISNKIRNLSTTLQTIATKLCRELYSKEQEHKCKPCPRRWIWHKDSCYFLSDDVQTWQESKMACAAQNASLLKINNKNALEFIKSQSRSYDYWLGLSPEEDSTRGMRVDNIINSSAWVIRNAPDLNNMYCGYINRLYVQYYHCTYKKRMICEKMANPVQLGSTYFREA
Put plainly: biotinylated CD371 captured with streptavidin, soluble scFv as analyte. The text has this: For scFv affinity measurements, biotinylated CD371 was captured with streptavidin, and soluble scFv was used as analyte. […] Consistent with the flow cytometry results, weak binding of the 1B10 scFv in the VH-VL orientation was observed but a dissociation constant could not be calculated by any curve fit method.

B1: B10 scFv in the VL-VH orientation (scFv)
scFv: DIVMTQSPDSLAVSLGERATINCKSSQSVLDSYNNENNLAWYQQKPGQPPKLLIYWASTRESGVPDRFSGSGSGTDFTLTISSLQAEDVAVYYCQQYTSEPITFGQGTKVEIKGGGGSGGGGSGGGSGGGGSEVQLLESGGGLVQPGGSLRLSCAASGFTFSDYQMSWVRQAPGKGLEWVSGIQGGGGSTYYADSVKGRFTISRDNSKNTLYLQMNSLRAEDTAVYYCAREMWRGDYYSGMDVWGQGTTVTVSS
notes: also called 1B10 scFv VL-VH; VL-VH scFv
For the molecule B1, the Kd was 16 nM, the koff is 0.00952 s⁻¹ and the kon is 599000 M⁻¹ s⁻¹.
